These results are taken from publication PMC11417369, “DNA sequence and chromatin differentiate sequence-specific transcription factor binding in the human malaria parasite Plasmodium falciparum”.

The target in the data set is T1, HDP1 homeodomain-like (Plasmodium falciparum, UniProt Q8IKH4 2990-3078).
T1 sequence: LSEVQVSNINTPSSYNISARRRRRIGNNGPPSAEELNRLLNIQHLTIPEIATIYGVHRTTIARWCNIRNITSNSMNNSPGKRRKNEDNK
The experiment in a line: gcPBM; about 25 ug protein; PBS, 1% milk, 0.2 mg/ml BSA, salmon testes DNA, 0.03% Triton X-100. As to conditions: tags: N-terminal GST (pGEX-4T-1), kept; chain copies: 2; label: surface-attached array probe.

B1: GTGCAC_negctrl_site2 (dsDNA)
DNA 1: ATATGAACAAAATAAATCTCTTCAAAAATAATGTTC
DNA 2: GAACATTATTTTTGAAGAGATTTATTTTGTTCATAT
Regarding B1, the binding signal is 5.98 ln median PBM intensity, better of two orientations.

B2: GTGCAC_site10728 (dsDNA)
DNA 1: TCATACATGGTGTGTTTGCACTTGACCTATATTCAT
DNA 2: ATGAATATAGGTCAAGTGCAAACACACCATGTATGA
For the molecule B2, the binding signal is 8.23 ln median PBM intensity, better of two orientations.

B3: GTGCAC_negctrl_site272 (dsDNA)
DNA 1: AAGTTAGGATAGATCCAATAATTTTTAGTTTCTCTT
DNA 2: AAGAGAAACTAAAAATTATTGGATCTATCCTAACTT
Regarding B3, the binding signal was 5.7 ln median PBM intensity, better of two orientations.

B4: GTGCAC_site10539 (dsDNA)
DNA 1: ATATATTTTTATATAGTGCAAGTAATAAAAAGGAAT
DNA 2: ATTCCTTTTTATTACTTGCACTATATAAAAATATAT
With B4, the binding signal was 8.63 ln median PBM intensity, better of two orientations.

B5: GTGCAC_site10562 (dsDNA)
DNA 1: TTATTTATTTATATAGTGCAATAAACACATAAATAG
DNA 2: CTATTTATGTGTTTATTGCACTATATAAATAAATAA
As for B5, the binding signal is 9.14 ln median PBM intensity, better of two orientations.

B6: GTGCAC_negctrl_site466 (dsDNA)
DNA 1: AAAAAAATTAAAAATTAAAATTAAAAATAATATATA
DNA 2: TATATATTATTTTTAATTTTAATTTTTAATTTTTTT
Turning to B6, the binding signal is 5.91 ln median PBM intensity, better of two orientations.

B7: GTGCAC_site10652 (dsDNA)
DNA 1: ATATATATATTTTGGTAGCACCTCCTTTTTTTTTTT
DNA 2: AAAAAAAAAAAGGAGGTGCTACCAAAATATATATAT
For the molecule B7, the binding signal is 8.08 ln median PBM intensity, better of two orientations.

B8: GTGCAC_negctrl_site145 (dsDNA)
DNA 1: TTTGTAAAATAATATCTTTCATGTCCTTACTAATTA
DNA 2: TAATTAGTAAGGACATGAAAGATATTATTTTACAAA
As to B8, the binding signal is 5.95 ln median PBM intensity, better of two orientations.

B9: GTGCAC_negctrl_site29 (dsDNA)
DNA 1: TAAGTCAAAACTTTTTTTTCTAAATTTCCATAATTA
DNA 2: TAATTATGGAAATTTAGAAAAAAAAGTTTTGACTTA
Regarding B9, the binding signal was 5.89 ln median PBM intensity, better of two orientations.

B10: GTGCAC_site9712 (dsDNA)
DNA 1: GAAAGAAAATATTAAGTGCATATTTTAATGATACAA
DNA 2: TTGTATCATTAAAATATGCACTTAATATTTTCTTTC
For the molecule B10, the binding signal was 8.76 ln median PBM intensity, better of two orientations.

B11: GTGCAC_site9778 (dsDNA)
DNA 1: CACCCTTTACACAAGGTGCATACTTTATTATATTTT
DNA 2: AAAATATAATAAAGTATGCACCTTGTGTAAAGGGTG
Regarding B11, the binding signal is 8.31 ln median PBM intensity, better of two orientations.

B12: GTGCAC_site9537 (dsDNA)
DNA 1: TAAATATATATATGTGTGCACTTCTTCATTTTAATA
DNA 2: TATTAAAATGAAGAAGTGCACACATATATATATTTA
For B12, the binding signal is 9.22 ln median PBM intensity, better of two orientations.

B13: GTGCAC_site10124 (dsDNA)
DNA 1: AAAAAAAAAAAATACGTGCACTATGATATATTATAT
DNA 2: ATATAATATATCATAGTGCACGTATTTTTTTTTTTT
Take B13: the binding signal is 9.03 ln median PBM intensity, better of two orientations.

B14: GTGCAC_negctrl_site727 (dsDNA)
DNA 1: TTTTTCTTTTTCTTTTTTTCTTTTTTTTTTTTTTTC
DNA 2: GAAAAAAAAAAAAAAAGAAAAAAAGAAAAAGAAAAA
Regarding B14, the binding signal is 5.74 ln median PBM intensity, better of two orientations.

B15: GTGCAC_site10125 (dsDNA)
DNA 1: ATATATATGGAAACAGTGCAATACATATATATATAT
DNA 2: ATATATATATATGTATTGCACTGTTTCCATATATAT
On to B15, for which the binding signal is 9.41 ln median PBM intensity, better of two orientations.

B16: GTGCAC_negctrl_site338 (dsDNA)
DNA 1: TTTTTTTTTTTTTTTTTTTTTTTGTCTTATTTTTTT
DNA 2: AAAAAAATAAGACAAAAAAAAAAAAAAAAAAAAAAA
With B16, the binding signal is 5.91 ln median PBM intensity, better of two orientations.

B17: GTGCAC_site10509 (dsDNA)
DNA 1: ACAACAATTCACTTGATGCACTAACCAAAAAAATAA
DNA 2: TTATTTTTTTGGTTAGTGCATCAAGTGAATTGTTGT
For the molecule B17, the binding signal is 7.97 ln median PBM intensity, better of two orientations.

B18: GTGCAC_site10123 (dsDNA)
DNA 1: ATACCTATTTGATGAGTGCATTATCCAATATATGTA
DNA 2: TACATATATTGGATAATGCACTCATCAAATAGGTAT
Take B18: the binding signal was 8.94 ln median PBM intensity, better of two orientations.

B19: GTGCAC_site10413 (dsDNA)
DNA 1: AATAAATTCATGATAGTGCAAAAATTATTTTTGTTA
DNA 2: TAACAAAAATAATTTTTGCACTATCATGAATTTATT
With B19, the binding signal was 8.5 ln median PBM intensity, better of two orientations.

B20: GTGCAC_site10445 (dsDNA)
DNA 1: ACGGAAAAAGAAAAGGTGCATATGGACACAATATAT
DNA 2: ATATATTGTGTCCATATGCACCTTTTCTTTTTCCGT
Take B20: the binding signal was 9.46 ln median PBM intensity, better of two orientations.

B21: GTGCAC_negctrl_site725 (dsDNA)
DNA 1: TTTTTAATCAGAAATATTTATTAAAGAATTTTATAG
DNA 2: CTATAAAATTCTTTAATAAATATTTCTGATTAAAAA
Regarding B21, the binding signal was 5.95 ln median PBM intensity, better of two orientations.

B22: GTGCAC_negctrl_site124 (dsDNA)
DNA 1: TTTTAAAATTTTTTTTTTTTTTTTTTATGAACAAGT
DNA 2: ACTTGTTCATAAAAAAAAAAAAAAAAAATTTTAAAA
B22: the binding signal is 5.92 ln median PBM intensity, better of two orientations.

B23: GTGCAC_site10533 (dsDNA)
DNA 1: CGTAAATTTTTCTAAGTGCATGTTAATTTTTCAATT
DNA 2: AATTGAAAAATTAACATGCACTTAGAAAAATTTACG
For B23, the binding signal was 7.89 ln median PBM intensity, better of two orientations.

B24: GTGCAC_site10078 (dsDNA)
DNA 1: AATTATATATAAAAAGTGCAAAACGATAATTCATCA
DNA 2: TGATGAATTATCGTTTTGCACTTTTTATATATAATT
Consider B24, for which the binding signal is 8.44 ln median PBM intensity, better of two orientations.

B25: GTGCAC_site10061 (dsDNA)
DNA 1: AAAAAAAAAAAAAGAGTGCAAACTATGATAATTTAA
DNA 2: TTAAATTATCATAGTTTGCACTCTTTTTTTTTTTTT
As for B25, the binding signal is 8.19 ln median PBM intensity, better of two orientations.

B26: GTGCAC_negctrl_site487 (dsDNA)
DNA 1: ATCATGGAAAAAACAAATGGGCTACATTACCTTTTG
DNA 2: CAAAAGGTAATGTAGCCCATTTGTTTTTTCCATGAT
In the case of B26, the binding signal was 5.94 ln median PBM intensity, better of two orientations.

B27: GTGCAC_site9933 (dsDNA)
DNA 1: ATCTTATATATATGTGTGCACGTATATATAAGCAAT
DNA 2: ATTGCTTATATATACGTGCACACATATATATAAGAT
Turning to B27, the binding signal was 9.28 ln median PBM intensity, better of two orientations.

B28: GTGCAC_negctrl_site380 (dsDNA)
DNA 1: ATGGAAGGATAATAAAAACCTTTACCTTTCTGTTTA
DNA 2: TAAACAGAAAGGTAAAGGTTTTTATTATCCTTCCAT
With B28, the binding signal is 5.82 ln median PBM intensity, better of two orientations.

B29: GTGCAC_site10338 (dsDNA)
DNA 1: TGATATAAAATTAAAGTGCAAAAAAAAAATAAAAAA
DNA 2: TTTTTTATTTTTTTTTTGCACTTTAATTTTATATCA
Regarding B29, the binding signal was 8.82 ln median PBM intensity, better of two orientations.

B30: GTGCAC_site10737 (dsDNA)
DNA 1: TAATTTCTTTAGGGGGTGCTTTTATAGTTTTTATTA
DNA 2: TAATAAAAACTATAAAAGCACCCCCTAAAGAAATTA
Take B30: the binding signal was 8.27 ln median PBM intensity, better of two orientations.

B31: GTGCAC_site10244 (dsDNA)
DNA 1: ATCCGCTGCCTTTTGGTGCAGAACATAATCATGTAA
DNA 2: TTACATGATTATGTTCTGCACCAAAAGGCAGCGGAT
For the molecule B31, the binding signal is 8.03 ln median PBM intensity, better of two orientations.

B32: GTGCAC_site10465 (dsDNA)
DNA 1: TGGTATGCAATATTGGTGCGTATATATTTTAAAGGG
DNA 2: CCCTTTAAAATATATACGCACCAATATTGCATACCA
B32: the binding signal was 8.58 ln median PBM intensity, better of two orientations.

B33: GTGCAC_site9698 (dsDNA)
DNA 1: GACTTTTCATTTATAGTGCAAGTTTTTTTTTTTTTT
DNA 2: AAAAAAAAAAAAAACTTGCACTATAAATGAAAAGTC
On to B33, for which the binding signal is 7.84 ln median PBM intensity, better of two orientations.

B34: GTGCAC_site10110 (dsDNA)
DNA 1: AGTAGATTTTTATTAGTGCATTTTATACTACAAAAA
DNA 2: TTTTTGTAGTATAAAATGCACTAATAAAAATCTACT
For the molecule B34, the binding signal is 8.86 ln median PBM intensity, better of two orientations.

B35: GTGCAC_negctrl_site302 (dsDNA)
DNA 1: TAAAAAAATAAAAAAAAAAAATTATAAAATTATATA
DNA 2: TATATAATTTTATAATTTTTTTTTTTTATTTTTTTA
On to B35, for which the binding signal was 5.98 ln median PBM intensity, better of two orientations.

B36: GTGCAC_negctrl_site165 (dsDNA)
DNA 1: AATCGATTGGATAATATTTTTTCTCTTAATTTTTTG
DNA 2: CAAAAAATTAAGAGAAAAAATATTATCCAATCGATT
In the case of B36, the binding signal is 5.77 ln median PBM intensity, better of two orientations.

B37: GTGCAC_negctrl_site34 (dsDNA)
DNA 1: AACTTAAAAAAAAAAAAAAAAAAAAAAAAAAAAAAA
DNA 2: TTTTTTTTTTTTTTTTTTTTTTTTTTTTTTTAAGTT
B37: the binding signal was 5.77 ln median PBM intensity, better of two orientations.

B38: GTGCAC_site9865 (dsDNA)
DNA 1: ATGTTGCTCATATGAGTGCACGTTTCATTTCAGTTT
DNA 2: AAACTGAAATGAAACGTGCACTCATATGAGCAACAT
Regarding B38, the binding signal is 8.54 ln median PBM intensity, better of two orientations.

B39: GTGCAC_site9692 (dsDNA)
DNA 1: TATATATGTATAAGAGTGCATATGCATATATGTATA
DNA 2: TATACATATATGCATATGCACTCTTATACATATATA
Turning to B39, the binding signal was 8.71 ln median PBM intensity, better of two orientations.

B40: GTGCAC_site10031 (dsDNA)
DNA 1: ATAAATAAAACAACAGTGCAATAAAATTAGTTGAGG
DNA 2: CCTCAACTAATTTTATTGCACTGTTGTTTTATTTAT
Turning to B40, the binding signal is 8.8 ln median PBM intensity, better of two orientations.

B41: GTGCAC_site9856 (dsDNA)
DNA 1: TTAGCAGGACGTTTGGTGCACGTACTGTTTTTCTTT
DNA 2: AAAGAAAAACAGTACGTGCACCAAACGTCCTGCTAA
For B41, the binding signal is 9.34 ln median PBM intensity, better of two orientations.
